The results in this text go back to patent publication US20180230189A1 (INSERM INSTITUT NATIONAL DE LA SANT ET DE LA RECHERCHE …, published 2018).

This test has as its target T1, extracellular domain of the recombinant protein NRP-1 from RnD systems (human, UniProt O14786 22-856).
T1 construct: Bought extracellular domain
Put plainly: Bio-layer interferometry (BLI), synthetic peptide and recombinant NRP-1 extracellular domain. As to the method: Ligands preparation: proteins were incubated in a PBS buffer with a 1:3 ratio molar ratio of biotin (biotin-PEG4-NHS from Pierce EZ kit, prepared following the manufacturer's instructions). Free biotin was removed using a desalting column (Pierce). The biotinylated protein (called ligand) was immobilized onto streptavidin biosensor tips and dipped into wells containing the buffer with the analyte of interest (association) or without (dissociation).
From the best consensus mode, peptide sequences SEQ ID NO:3 for leptin and SEQ ID NO:4 for NRP-1 have been identified (FIG. 2). The Leptin (OB) binding domain (SEQ ID:3) to NRP-1 (SEQ ID:2) was validated by BLI using a synthetized peptide (SEQ ID:3) and the extracellular domain of the recombinant protein NRP-1 from RnD systems (FIG. 3).
(BLI is a label-free optical method that tracks binding on a fibre tip over time.)

T1 sequence (O14786 22-856 V179A limits assumed): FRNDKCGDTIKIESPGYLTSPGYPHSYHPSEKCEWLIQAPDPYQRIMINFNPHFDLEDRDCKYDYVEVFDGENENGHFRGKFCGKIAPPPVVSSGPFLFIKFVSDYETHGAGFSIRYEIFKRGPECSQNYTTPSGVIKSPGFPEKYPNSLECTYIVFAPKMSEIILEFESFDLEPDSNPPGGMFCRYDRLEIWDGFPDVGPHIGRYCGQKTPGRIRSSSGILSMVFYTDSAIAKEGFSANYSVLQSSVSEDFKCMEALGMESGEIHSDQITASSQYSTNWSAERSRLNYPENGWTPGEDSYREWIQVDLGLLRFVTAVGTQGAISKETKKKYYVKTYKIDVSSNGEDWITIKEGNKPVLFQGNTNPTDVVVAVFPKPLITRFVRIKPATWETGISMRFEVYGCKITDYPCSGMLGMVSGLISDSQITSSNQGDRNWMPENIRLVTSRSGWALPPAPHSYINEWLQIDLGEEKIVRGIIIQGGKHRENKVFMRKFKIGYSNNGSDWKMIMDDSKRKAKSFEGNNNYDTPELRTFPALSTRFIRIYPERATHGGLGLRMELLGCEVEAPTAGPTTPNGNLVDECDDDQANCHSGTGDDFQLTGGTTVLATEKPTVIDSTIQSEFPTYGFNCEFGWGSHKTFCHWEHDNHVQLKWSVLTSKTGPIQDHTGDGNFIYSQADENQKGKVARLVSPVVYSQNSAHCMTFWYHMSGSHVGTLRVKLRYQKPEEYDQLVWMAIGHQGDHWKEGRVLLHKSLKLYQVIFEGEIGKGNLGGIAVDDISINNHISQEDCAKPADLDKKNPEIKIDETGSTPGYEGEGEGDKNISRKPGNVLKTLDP

B1: synthetized leptin (OB) peptide SEQ ID NO:3 (peptide)
peptide: ENLRDLLHVLAFSKSCHLPWASGLETL
notes: Synthetic peptide derived from leptin, identified by docking and then tested by BLI
With B1, the binding result is on record as “binds”.
